Test results as given in PMC4005663 (Nucleic Acids Research, 2014).

Biological target: T1, 6xHis–Brd4(1–720) (human, UniProt O60885 1-720)
T1 construct: not shown: 6xHis, N-terminal, kept
Assay: pull-down
Details: both partners purified

B1: GST–MLV IN CTD(290–408) (domain or fragment)
chain: PSLQAHLQALYLVQHEVWRPLAAAYQEQLDRPVVPHPYRVGDTVWVRRHQTKNLEPRWKGPYTVLLTTPTALKVDGIAAWIHAAHVKAADPGGGPSSRLTWRVQRSQNPLKIRLTREAP
notes: not shown: GST, N-terminal, kept
B1 was tested, and the Kd was 61.2 ± 4.05 nM.

B2: GST–MLV IN NTD–CCD(1–289) (domain or fragment)
chain: IENSSPYTSEHFHYTVTDIKDLTKLGAIYDKTKKYWVYQGKPVMPDQFTFELLDFLHQLTHLSFSKMKALLERSHSPYYMLNRDRTLKNITETCKACAQVNASKSAVKQGTRVRGHRPGTHWEIDFTEIKPGLYGYKYLLVFIDTFSGWIEAFPTKKETAKVVTKKLLEEIFPRFGMPQVLGTDNGPAFVSKVSQTVADLLGIDWKLHCAYRPQSSGQVERMNRTIKETLTKLTLATGSRDWVLLLPLALYRARNTPGPHGLTPYEILYGAPPPLVNFPDPDMTRVTNS
B2 was tested, and the Kd was > 2000 nM.
